In patent publication US10676527B2, “Methods and compositions for modulation of blood-neural barrier” (Ludwig Institute for Cancer Research Ltd, priority 2006, dated 2020):

B1: PDGF-BB: active platelet-derived growth factor BB dimer (from Preprotech Inc.) (protein, UniProt P01127 82-190, looked up)
Platelet-derived growth …: SLGSLTIAEPAMIAECKTRTEVFEISRRLIDRTNANFLVWPPCVEVQRCSGCCNNRNVQCRPTQVQLRPVQVRKIEIVRKKPIFKKATVTLEDHLACKCETVAAARPVT
B2: tPA: wild type murine tissue-type plasminogen activator, serine protease thrombolytic agent (protein, UniProt P11214 33-559, looked up)
Tissue-type plasminogen …: SYRATCRDEPTQTTYQQHQSWLRPMLRSSRVEYCRCNSGLVQCHSVPVRSCSEPRCFNGGTCQQALYFSDFVCQCPDGFVGKRCDIDTRATCFEEQGITYRGTWSTAESGAECINWNSSVLSLKPYNARRPNAIKLGLGNHNYCRNPDRDLKPWCYVFKAGKYTTEFCSTPACPKGKSEDCYVGKGVTYRGTHSLTTSQASCLPWNSIVLMGKSYTAWRTNSQALGLGRHNYCRNPDGDARPWCHVMKDRKLTWEYCDMSPCSTCGLRQYKRPQFRIKGGLYTDITSHPWQAAIFVKNKRSPGERFLCGGVLISSCWVLSAAHCFLERFPPNHLKVVLGRTYRVVPGEEEQTFEIEKYIVHEEFDDDTYDNDIALLQLRSQSKQCAQESSSVGTACLPDPNLQLPDWTECELSGYGKHEASSPFFSDRLKEAHVRLYPSSRCTSQHLFNKTVTNNMLCAGDTRSGGNQDLHDACQGDSGGPLVCMINKQMTLTGIISWGLGCGQKDVPGVYTKVTNYLDWIHDNMKQ

How the values were obtained:
[1] = test system: BBB; test: Evans Blue extravasation (BBB opening) after intraventricular injection; format: in vivo; details: C57BL6 mice, 2 μl intraventricular, 3 μM, 1 hour after injection
Procedure: Wild type C57BL6 mice (10 Week old) were injected intraventricularly into the dorsal third ventricle with 2 μl of PBS, active PDGF-AA, PDGF-BB (both from Preprotech Inc.) and PDGF-CC (see below) (3 μM). Evans Blue was given intravenously immediately after the injection. One hour after the injection, the animals were perfused with PBS and the brain tissue was removed and processed for Evans Blue extravasation.
Wild type C57BL6 mice (10 Week old) were injected intraventricularly into the dorsal third ventricle with 2 μl of either PBS, wild type murine tPA (3 μM), active PDGF-CC (3 μM), or wild type murine tPA (3 μM) plus active PDGF-CC (3 μM). Evans Blue was given intravenously immediately after the injection. One hour after the injection, the animals were perfused with PBS and the brain tissue was removed and processed for Evans Blue extravasation.
Wt C57BL6 mice (10 Week old) were injected intraventricularly with 3 μl of either PBS, wild type murine tPA (3 μM), wild type murine tPA (3 μM) with rabbit anti-PDGF-CC (150 μg/ml). Evans Blue was given intravenously immediately after the injection. One hour after the injection, the animals were perfused with PBS and the brain tissue was removed and processed for Evans Blue extravasation.

[2] = test system: cerebral vessels; test: electron microscopy of cerebral vessels after intraventricular injection (edema); format: in vivo; details: mice, 2 μL at 1 μM intraventricular, 1 hour after injection, cortex
Procedure: Electron microscopy of vessels in the brain from mice treated by intraventricular injection 1 hour prior to analysis. Panel A, PBS; panel B, tPA (2 μL at a concentration of a 1 μM); panels C and D PDGF-CC (3 μL at a concentration of a 1 μM). Panels B-D show arterioles surrounded by fluid-filled spaces indicative of developing edema. The approximate magnification is indicated on each panel.
Specifically, tPA or active PDGF-CC (2 μL each at a concentration a 1 μM) were injected intraventricularly into mice, and morphological analysis of the cerebrovascular structure was performed. PBS was used as control. […] FIGS. 5B-D show arterioles surrounded by fluid-filled spaces indicative of developing edema. The approximate magnification is indicated on each panel.

Molecule	vascular permeability / opening of the BBB (Evans Blue extravasation) ([1]; Example 1, FIG. 1)	edema formation around cerebral vessels (transmission electron micrographs) [2]	opening of the BBB (Evans Blue extravasation) ([1]; Example 3, FIG. 3)
B1	induce increased vascular permeability		
B2		induce areas of fluid accumulation surrounding the vessels	potent inducers of opening of the BBB
